In article PMC2199204 (The Journal of Cell Biology, 2001):

Target: T1, endogenous RasGRP (human (endogenous in A172), UniProt O95267 1-797)
T1 sequence (looked up): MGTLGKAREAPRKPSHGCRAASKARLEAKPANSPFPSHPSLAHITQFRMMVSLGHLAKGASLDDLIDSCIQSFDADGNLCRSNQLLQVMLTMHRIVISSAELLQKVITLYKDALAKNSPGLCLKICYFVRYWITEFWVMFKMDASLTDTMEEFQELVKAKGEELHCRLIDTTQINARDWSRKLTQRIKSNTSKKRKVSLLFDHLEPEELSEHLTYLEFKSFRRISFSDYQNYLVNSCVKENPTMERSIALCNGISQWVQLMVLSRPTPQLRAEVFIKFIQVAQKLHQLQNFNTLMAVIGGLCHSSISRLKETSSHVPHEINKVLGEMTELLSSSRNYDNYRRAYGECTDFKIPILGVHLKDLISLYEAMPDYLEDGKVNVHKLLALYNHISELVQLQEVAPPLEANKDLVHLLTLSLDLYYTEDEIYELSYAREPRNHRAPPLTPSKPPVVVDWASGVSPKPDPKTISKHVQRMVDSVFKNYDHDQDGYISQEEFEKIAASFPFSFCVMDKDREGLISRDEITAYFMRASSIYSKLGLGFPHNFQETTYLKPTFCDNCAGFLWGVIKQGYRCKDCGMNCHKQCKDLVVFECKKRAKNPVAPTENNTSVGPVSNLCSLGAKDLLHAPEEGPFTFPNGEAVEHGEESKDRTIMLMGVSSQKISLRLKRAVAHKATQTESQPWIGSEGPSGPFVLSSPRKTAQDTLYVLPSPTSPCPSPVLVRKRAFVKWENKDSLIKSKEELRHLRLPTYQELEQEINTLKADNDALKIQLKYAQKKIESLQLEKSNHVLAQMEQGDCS
Assay: co-IP

B1: endogenous DGKζ (enzyme)
chain: not shown
fold associated DGK activity, PMA-treated over untreated cells: 1.9 fold
